In the supplement of paper PMC10065799, “High-throughput profiling of sequence recognition by tyrosine kinases and SH2 domains using bacterial peptide display” (eLife, 2023):

Key:
SHP2-C SH2 = experiment: SH2 binding enrichment of the phosphorylated peptide, bacterial display (enrichment ratio); higher = better substrate or ligand; peptides without Tyr show the background
Grb2 SH2 = Grb2 SH2 (UniProt P62993); experiment: as above
c-Src SH2 = experiment: as above
c-Src = experiment: phosphorylation enrichment, bacterial display (enrichment ratio); higher = better substrate or ligand; peptides without Tyr show the background
MERTK = MERTK (UniProt Q12866); experiment: as above
FGFR3 = FGFR3 (UniProt P22607); experiment: as above
EPHB2 = EPHB2 (UniProt P29323); experiment: as above
c-Abl (mouse) = experiment: as above
EPHB1 = EPHB1 (UniProt P54762); experiment: as above
Jak2 = Jak2 (UniProt O60674); experiment: as above
AncSZ = experiment: as above
Fer (mouse) = experiment: as above
Fyn = Fyn (UniProt P06241); experiment: as above
Hck = Hck (UniProt P08631); experiment: as above
FGFR1 = FGFR1 (UniProt P11362); experiment: as above
Fes = Fes (UniProt P07332); experiment: as above
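Throughout, for SH2 binding enrichment of the phosphorylated peptide, bacterial display: peptide library displayed on the E. coli surface as eCPX fusions, selected cells deep-sequenced, score is each peptide's frequency after selection divided by its frequency in the input.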
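Throughout, for phosphorylation enrichment, bacterial display: 11-residue human phosphosite peptides and single-mutation variants displayed on the E. coli surface, counted by deep sequencing, each peptide's frequency after selection divided by its frequency in the unselected input library; frequency after pTyr selection over input frequency; kinase dosed for 20-30% of maximal phosphorylation in three min.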

Sequence of Fes (P07332 whole entry, looked up, the tested form may be a part): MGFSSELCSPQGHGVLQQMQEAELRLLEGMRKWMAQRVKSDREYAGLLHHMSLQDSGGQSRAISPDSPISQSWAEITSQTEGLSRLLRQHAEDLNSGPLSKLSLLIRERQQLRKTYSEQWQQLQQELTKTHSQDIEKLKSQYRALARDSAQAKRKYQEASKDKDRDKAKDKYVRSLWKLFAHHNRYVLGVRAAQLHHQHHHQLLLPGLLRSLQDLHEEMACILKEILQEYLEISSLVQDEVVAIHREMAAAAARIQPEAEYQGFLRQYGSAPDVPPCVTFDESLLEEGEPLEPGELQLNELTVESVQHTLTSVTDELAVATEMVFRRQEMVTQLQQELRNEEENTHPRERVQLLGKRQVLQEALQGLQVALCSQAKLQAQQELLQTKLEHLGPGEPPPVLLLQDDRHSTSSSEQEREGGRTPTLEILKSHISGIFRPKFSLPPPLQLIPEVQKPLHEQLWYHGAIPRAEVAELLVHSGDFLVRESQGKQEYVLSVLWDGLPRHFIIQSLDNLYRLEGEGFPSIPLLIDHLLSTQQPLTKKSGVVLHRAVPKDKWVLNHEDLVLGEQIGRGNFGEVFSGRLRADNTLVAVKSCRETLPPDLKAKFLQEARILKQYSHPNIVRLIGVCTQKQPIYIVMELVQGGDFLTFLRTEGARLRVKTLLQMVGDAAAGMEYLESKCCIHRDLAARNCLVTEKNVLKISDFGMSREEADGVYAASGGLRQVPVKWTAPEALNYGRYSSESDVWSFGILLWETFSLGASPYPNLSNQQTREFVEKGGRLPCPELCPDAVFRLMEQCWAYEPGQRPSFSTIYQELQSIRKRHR
Sequence of FGFR1 (P11362 whole entry, looked up): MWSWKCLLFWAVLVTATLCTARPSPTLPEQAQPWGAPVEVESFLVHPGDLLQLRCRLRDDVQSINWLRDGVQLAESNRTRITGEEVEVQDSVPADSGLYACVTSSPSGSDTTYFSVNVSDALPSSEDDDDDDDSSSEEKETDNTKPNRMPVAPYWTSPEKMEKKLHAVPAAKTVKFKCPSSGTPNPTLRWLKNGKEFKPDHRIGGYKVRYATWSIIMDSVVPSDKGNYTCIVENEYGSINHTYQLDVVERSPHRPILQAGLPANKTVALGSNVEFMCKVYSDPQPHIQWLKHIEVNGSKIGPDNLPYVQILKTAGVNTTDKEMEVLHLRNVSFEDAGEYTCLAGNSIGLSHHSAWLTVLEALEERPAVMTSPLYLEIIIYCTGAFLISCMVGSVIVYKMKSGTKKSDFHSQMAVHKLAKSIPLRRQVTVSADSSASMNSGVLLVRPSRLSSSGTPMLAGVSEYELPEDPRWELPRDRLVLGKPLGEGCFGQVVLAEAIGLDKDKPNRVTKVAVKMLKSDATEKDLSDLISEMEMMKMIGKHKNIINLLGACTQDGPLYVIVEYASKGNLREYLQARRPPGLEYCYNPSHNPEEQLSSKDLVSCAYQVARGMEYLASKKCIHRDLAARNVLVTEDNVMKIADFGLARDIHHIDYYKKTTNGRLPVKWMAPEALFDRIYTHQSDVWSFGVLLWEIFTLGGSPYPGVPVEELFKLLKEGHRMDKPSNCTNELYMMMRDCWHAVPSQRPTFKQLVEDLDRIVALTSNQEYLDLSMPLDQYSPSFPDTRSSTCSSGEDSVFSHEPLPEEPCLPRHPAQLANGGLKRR
Sequence of Jak2 (O60674 whole entry, looked up): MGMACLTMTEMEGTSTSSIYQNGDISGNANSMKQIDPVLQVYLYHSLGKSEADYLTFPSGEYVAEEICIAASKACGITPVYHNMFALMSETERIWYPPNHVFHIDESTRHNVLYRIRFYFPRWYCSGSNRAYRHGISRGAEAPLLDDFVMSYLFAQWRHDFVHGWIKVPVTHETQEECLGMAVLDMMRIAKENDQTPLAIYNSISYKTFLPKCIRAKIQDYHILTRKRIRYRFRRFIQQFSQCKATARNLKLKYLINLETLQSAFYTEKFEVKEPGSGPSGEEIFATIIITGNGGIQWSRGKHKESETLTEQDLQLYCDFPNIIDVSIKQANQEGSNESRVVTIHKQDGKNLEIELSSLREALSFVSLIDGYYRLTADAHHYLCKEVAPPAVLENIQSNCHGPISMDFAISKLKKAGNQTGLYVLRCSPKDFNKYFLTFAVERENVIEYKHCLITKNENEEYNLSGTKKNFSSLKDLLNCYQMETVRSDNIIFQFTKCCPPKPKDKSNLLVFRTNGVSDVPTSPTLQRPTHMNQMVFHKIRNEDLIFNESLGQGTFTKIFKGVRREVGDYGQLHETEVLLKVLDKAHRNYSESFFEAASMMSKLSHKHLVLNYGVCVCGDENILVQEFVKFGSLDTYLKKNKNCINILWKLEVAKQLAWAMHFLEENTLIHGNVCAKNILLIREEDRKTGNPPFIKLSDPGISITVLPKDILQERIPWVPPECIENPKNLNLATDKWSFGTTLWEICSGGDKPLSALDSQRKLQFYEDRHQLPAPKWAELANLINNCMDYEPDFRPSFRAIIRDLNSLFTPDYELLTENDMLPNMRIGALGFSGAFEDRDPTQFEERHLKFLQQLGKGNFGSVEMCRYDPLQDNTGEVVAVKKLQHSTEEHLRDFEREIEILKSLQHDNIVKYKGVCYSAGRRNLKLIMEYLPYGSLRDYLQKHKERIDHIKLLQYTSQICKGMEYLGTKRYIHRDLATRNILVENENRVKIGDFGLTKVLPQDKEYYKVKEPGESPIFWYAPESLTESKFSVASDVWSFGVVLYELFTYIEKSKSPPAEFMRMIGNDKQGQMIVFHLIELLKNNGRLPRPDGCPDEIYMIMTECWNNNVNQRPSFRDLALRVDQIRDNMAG
Sequence of EPHB2 (P29323 whole entry, looked up): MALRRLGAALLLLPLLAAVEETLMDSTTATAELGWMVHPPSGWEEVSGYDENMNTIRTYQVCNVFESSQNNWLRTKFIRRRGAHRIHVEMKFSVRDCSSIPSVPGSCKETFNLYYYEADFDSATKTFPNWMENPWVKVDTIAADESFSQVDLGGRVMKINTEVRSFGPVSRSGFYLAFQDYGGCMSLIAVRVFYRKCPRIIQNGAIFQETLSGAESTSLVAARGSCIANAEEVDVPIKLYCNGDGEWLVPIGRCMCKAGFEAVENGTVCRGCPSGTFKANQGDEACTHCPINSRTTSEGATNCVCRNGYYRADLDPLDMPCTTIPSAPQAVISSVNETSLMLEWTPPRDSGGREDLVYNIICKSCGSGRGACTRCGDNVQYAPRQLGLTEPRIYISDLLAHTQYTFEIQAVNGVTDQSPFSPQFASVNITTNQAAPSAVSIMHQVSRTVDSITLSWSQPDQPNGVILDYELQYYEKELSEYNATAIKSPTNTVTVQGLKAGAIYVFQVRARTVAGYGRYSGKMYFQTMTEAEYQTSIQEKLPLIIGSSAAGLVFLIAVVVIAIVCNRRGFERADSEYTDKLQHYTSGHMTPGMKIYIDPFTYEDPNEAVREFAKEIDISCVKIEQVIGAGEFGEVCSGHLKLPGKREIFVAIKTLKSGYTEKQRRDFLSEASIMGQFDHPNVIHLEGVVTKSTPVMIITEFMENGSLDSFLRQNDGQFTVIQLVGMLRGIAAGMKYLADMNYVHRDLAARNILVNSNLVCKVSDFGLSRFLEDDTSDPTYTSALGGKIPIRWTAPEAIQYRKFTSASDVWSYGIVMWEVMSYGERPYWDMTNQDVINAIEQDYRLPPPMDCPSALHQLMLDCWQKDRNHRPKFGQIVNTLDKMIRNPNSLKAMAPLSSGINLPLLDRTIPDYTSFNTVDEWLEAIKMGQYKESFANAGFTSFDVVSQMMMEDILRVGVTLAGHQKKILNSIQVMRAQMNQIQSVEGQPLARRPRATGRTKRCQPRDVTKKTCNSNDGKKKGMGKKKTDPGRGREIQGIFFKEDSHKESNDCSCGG
Sequence of EPHB1 (P54762 whole entry, looked up): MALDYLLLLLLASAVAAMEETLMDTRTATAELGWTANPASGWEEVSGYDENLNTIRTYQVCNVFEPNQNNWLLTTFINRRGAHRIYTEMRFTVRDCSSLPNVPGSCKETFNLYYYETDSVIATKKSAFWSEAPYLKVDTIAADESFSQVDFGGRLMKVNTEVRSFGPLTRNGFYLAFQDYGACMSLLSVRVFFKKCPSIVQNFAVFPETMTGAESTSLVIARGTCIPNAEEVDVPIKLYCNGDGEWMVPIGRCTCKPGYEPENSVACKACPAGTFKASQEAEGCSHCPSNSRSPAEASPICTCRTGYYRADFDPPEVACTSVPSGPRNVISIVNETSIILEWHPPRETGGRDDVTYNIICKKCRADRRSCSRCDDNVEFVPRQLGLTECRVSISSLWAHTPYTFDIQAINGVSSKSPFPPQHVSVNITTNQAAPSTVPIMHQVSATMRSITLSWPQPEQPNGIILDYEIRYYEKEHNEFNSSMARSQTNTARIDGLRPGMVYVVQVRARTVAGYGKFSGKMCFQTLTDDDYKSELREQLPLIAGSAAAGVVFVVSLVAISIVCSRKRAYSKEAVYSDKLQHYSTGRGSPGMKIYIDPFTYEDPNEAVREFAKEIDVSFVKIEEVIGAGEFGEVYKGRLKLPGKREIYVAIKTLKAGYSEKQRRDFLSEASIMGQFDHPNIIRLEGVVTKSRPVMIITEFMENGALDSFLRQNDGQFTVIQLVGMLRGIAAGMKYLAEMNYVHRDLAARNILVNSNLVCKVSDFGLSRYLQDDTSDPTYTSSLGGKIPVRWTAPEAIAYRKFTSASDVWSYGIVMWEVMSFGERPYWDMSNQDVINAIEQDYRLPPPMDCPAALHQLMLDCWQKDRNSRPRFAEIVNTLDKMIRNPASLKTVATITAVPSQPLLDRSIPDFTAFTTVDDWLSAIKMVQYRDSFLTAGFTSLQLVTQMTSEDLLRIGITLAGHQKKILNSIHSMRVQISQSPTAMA
Sequence of Grb2 SH2 (P62993 whole entry, looked up): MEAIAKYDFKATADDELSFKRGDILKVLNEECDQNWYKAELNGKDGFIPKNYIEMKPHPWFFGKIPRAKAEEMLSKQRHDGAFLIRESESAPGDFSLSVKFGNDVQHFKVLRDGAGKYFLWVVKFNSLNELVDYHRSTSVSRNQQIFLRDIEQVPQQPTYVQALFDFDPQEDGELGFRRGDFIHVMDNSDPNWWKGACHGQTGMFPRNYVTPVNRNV

Sequence | SH2 binding enrichment (SHP2-C SH2) | SH2 binding enrichment (Grb2 SH2) | SH2 binding enrichment (c-Src SH2) | phosphorylation enrichment (c-Src) | phosphorylation enrichment (MERTK) | phosphorylation enrichment (FGFR3) | phosphorylation enrichment (EPHB2) | phosphorylation enrichment (c-Abl (mouse)) | phosphorylation enrichment (EPHB1) | phosphorylation enrichment (Jak2) | phosphorylation enrichment (AncSZ) | phosphorylation enrichment (Fer (mouse)) | phosphorylation enrichment (Fyn) | phosphorylation enrichment (Hck) | phosphorylation enrichment (FGFR1) | phosphorylation enrichment (Fes)
WAFNLYDINKY [KCNIP3_Y174_D179Y] | 0.803 | 0.906 | 0.706 | 1.57 | 2.65 | 0.725 | 3.92 | 0.709 | 2.29 | 0.953 | 0.987 | 3.29 | 1.83 | 3.09 | 0.553 | 1.24
WASSSYRETPS [SORBS1_Y79_R74W] | 0.846 | 0.779 | 0.467 | 0.362 | 0.39 | 0.444 | 0.353 | 0.391 | 0.411 | 0.45 | 0.57 | 0.389 | 0.402 | 0.409 | 0.438 | 0.57
WCSNDHLGMSR [ALAS2_Y199_Y199H] | 0.811 | 0.801 | 0.684 | 0.447 | 0.418 | 0.576 | 0.514 | 0.504 | 0.394 | 0.537 | 0.754 | 0.438 | 0.434 | 0.375 | 0.416 | 0.671
WDLPEYSYKDP [ITGA3_Y237_S235P] | 0.77 | 0.89 | 0.784 | 0.495 | 0.464 | 0.926 | 0.651 | 0.545 | 0.631 | 1.18 | 2.12 | 0.517 | 1.12 | 0.787 | 0.688 | 1.18
WDLSEYSFKDP [ITGA3_Y237_YF] | 1.29 | 0.916 | 0.661 | 2.11 | 0.445 | 0.885 | 0.618 | 0.853 | 0.682 | 1.21 | 2.14 | 0.556 | 2.17 | 0.985 | 0.625 | 1.23
WDSSGYWTPEE [PAPPA2_Y908_C903W] | 2.08 | 1.2 | 36.9 | 0.453 | 0.502 | 0.87 | 0.533 | 0.672 | 0.521 | 1.28 | 1.41 | 0.569 | 0.53 | 0.449 | 0.855 | 1.08
WFKKFYDANYD [MAPRE2_Y158] | 0.722 | 0.82 | 0.581 | 0.364 | 0.399 | 0.552 | 0.529 | 0.774 | 0.477 | 0.899 | 1.18 | 0.398 | 0.398 | 0.423 | 0.43 | 1.03
WIPIQDPIISE [NOG_Y222_Y222D] | 0.748 | 0.729 | 0.488 | 0.557 | 0.474 | 0.717 | 0.551 | 0.882 | 0.678 | 0.965 | 1.18 | 0.52 | 0.578 | 0.622 | 0.578 | 1.24
WKKKIYEESST [MOCS2_Y170_E168K] | 0.481 | 0.62 | 0.415 | 0.448 | 0.432 | 0.813 | 0.526 | 0.761 | 0.393 | 0.794 | 0.818 | 0.449 | 0.534 | 0.511 | 0.423 | 1.05
WNDLDYVDSRR [GAA_Y407_M408V] | 0.796 | 0.903 | 0.643 | 0.478 | 0.357 | 0.67 | 0.869 | 0.53 | 0.515 | 0.89 | 1.44 | 0.45 | 0.373 | 0.521 | 0.567 | 0.94
WNDPDYMDSRR [GAA_Y407_L405P] | 0.581 | 0.679 | 0.417 | 0.453 | 0.351 | 0.727 | 0.687 | 0.614 | 0.989 | 0.779 | 1.46 | 0.432 | 0.493 | 0.472 | 0.553 | 1
WQQQSYLASGI [CTNNB1_Y30_D32A] | 0.588 | 0.822 | 0.52 | 0.5 | 0.411 | 0.533 | 0.51 | 0.686 | 0.532 | 0.638 | 0.642 | 0.442 | 0.487 | 0.447 | 0.463 | 0.754
WQQQSYLGSGI [CTNNB1_Y30_D32G] | 0.664 | 0.858 | 0.499 | 0.421 | 0.357 | 0.493 | 0.469 | 0.521 | 0.362 | 0.544 | 0.748 | 0.389 | 0.372 | 0.471 | 0.634 | 0.61
WRPFGYPRRRR [BCS1L_Y181] | 0.66 | 0.731 | 0.349 | 0.446 | 0.487 | 0.522 | 0.481 | 0.444 | 0.486 | 0.494 | 0.615 | 0.462 | 0.518 | 0.453 | 0.367 | 0.513
WSQAMYPDLGP [STARD8_Y330_R327Q] | 0.766 | 1.07 | 0.774 | 0.47 | 0.393 | 0.583 | 0.636 | 0.648 | 0.476 | 0.765 | 1.06 | 0.475 | 0.47 | 0.486 | 0.493 | 0.921
YAREGYSALPQ [SARS2_Y52] | 0.577 | 0.901 | 0.552 | 0.373 | 0.442 | 0.52 | 0.459 | 0.541 | 0.499 | 0.904 | 0.678 | 0.439 | 0.396 | 0.58 | 0.522 | 0.789
YCRIMYDIFPF [INTS13_Y67] | 1.12 | 1.01 | 1.64 | 2.98 | 4.92 | 2.89 | 5.07 | 1.7 | 6.02 | 1.51 | 1.85 | 2.06 | 2.55 | 3.78 | 3.47 | 1.48
YGTAQYCCRMG [LRRK2_Y2023_I2020T] | 0.752 | 0.991 | 0.823 | 0.757 | 2.78 | 0.603 | 9.81 | 3.23 | 0.714 | 0.506 | 0.719 | 0.603 | 1.01 | 1.2 | 0.498 | 0.613
YISLIYTNYEA [GSTP1_Y109] | 1.53 | 1.24 | 1.75 | 4.21 | 3.44 | 3.6 | 1.71 | 1.31 | 1.7 | 1.23 | 1.68 | 1.72 | 3.72 | 2.83 | 4.5 | 1.23
YPKVRYHWLVL [APTX_Y214_A212V] | 1.17 | 1.05 | 0.756 | 0.474 | 0.448 | 1.03 | 0.758 | 1.15 | 0.652 | 1.06 | 1 | 0.506 | 0.531 | 0.547 | 0.681 | 1.35
YRASYYRKGGC [ALK_Y1283] | 0.512 | 0.691 | 0.484 | 0.552 | 0.561 | 0.513 | 0.435 | 0.653 | 0.57 | 0.678 | 0.808 | 0.636 | 0.485 | 0.488 | 0.514 | 0.677
YRIDHYLGKEM [G6PD_Y202] | 0.665 | 0.678 | 0.589 | 0.485 | 0.508 | 0.654 | 0.627 | 0.706 | 0.467 | 0.865 | 0.716 | 0.445 | 0.757 | 0.57 | 0.57 | 0.909
YRRITYHNWRH [PDE6B_Y556] | 0.553 | 1.15 | 0.453 | 0.606 | 0.562 | 0.425 | 0.362 | 0.53 | 0.376 | 0.585 | 0.642 | 0.452 | 0.525 | 0.477 | 0.386 | 0.637
YTHSDYQYGQR [PKP2_Y166_S169G] | 0.885 | 0.712 | 0.692 | 0.439 | 0.424 | 0.606 | 0.416 | 0.492 | 0.436 | 0.317 | 0.867 | 0.572 | 0.476 | 0.703 | 0.531 | 0.496
